Measured values taken from PMC7438494, “Bedaquiline inhibits the yeast and human mitochondrial ATP synthases” (Communications Biology, 2020).

Assays:
[1] = molecular target: T1, subunit-a of the yeast mitochondrial F1Fo ATP synthase (S. cerevisiae, UniProt P00854 11-259); assay: cryo-EM structure; purified yeast F1Fo reconstituted in nanodiscs (POPC and cardiolipin, 12% by weight), incubated with BDQ (30 uM on ice 30 min, or 5 uM at room temperature 10 min); reconstruction focused on Fo at 4.2 A, whole F1Fo at 3.9 A; conditions: both partners purified
T1 construct: ATP synthase subunit a (Fo sector), S. cerevisiae mitochondrial; The His6 tag of strain USY006 is on ATP2 (beta subunit), not on this chain; also called a-subunit
T1 sequence (looked up): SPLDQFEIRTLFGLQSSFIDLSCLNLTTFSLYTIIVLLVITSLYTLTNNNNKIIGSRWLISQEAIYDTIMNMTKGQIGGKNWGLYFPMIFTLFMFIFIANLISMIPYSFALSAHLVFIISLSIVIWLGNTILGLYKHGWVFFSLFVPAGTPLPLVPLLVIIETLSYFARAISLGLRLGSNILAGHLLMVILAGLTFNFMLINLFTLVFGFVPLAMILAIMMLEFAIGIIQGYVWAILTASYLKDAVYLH

[2] = molecular target: the molecule itself; assay: as above

binding result [1]: binds
B1: subunit-c of the yeast mitochondrial F1Fo ATP synthase (c10-ring) (natural protein, S. cerevisiae, UniProt P61829 1-76, looked up)
chain: MQLVLAAKYIGAGISTIGLLGAGIGIAIVFAALINGVSRNPSIKDTVFPMAILGFALSEATGLFCLMVSFLLLFGV
notes: ATP synthase subunit c (subunit 9, Fo sector), S. cerevisiae mitochondrial; as modelled in PDB 6WTD (chains Q and R are two of the ten copies; initial model PDB 6CP7); also called c-subunit; c-ring; copies: 10
stoichiometry N [2]: 10
